Experimental data from paper PMC3159478 (Nucleic Acids Research, 2011).

Experiments:
SsoMCM WT [1] = biological target: T1, SsoMCM WT (Sulfolobus solfataricus, UniProt Q9UXG1 1-686); assay: single-pair FRET
T1 sequence: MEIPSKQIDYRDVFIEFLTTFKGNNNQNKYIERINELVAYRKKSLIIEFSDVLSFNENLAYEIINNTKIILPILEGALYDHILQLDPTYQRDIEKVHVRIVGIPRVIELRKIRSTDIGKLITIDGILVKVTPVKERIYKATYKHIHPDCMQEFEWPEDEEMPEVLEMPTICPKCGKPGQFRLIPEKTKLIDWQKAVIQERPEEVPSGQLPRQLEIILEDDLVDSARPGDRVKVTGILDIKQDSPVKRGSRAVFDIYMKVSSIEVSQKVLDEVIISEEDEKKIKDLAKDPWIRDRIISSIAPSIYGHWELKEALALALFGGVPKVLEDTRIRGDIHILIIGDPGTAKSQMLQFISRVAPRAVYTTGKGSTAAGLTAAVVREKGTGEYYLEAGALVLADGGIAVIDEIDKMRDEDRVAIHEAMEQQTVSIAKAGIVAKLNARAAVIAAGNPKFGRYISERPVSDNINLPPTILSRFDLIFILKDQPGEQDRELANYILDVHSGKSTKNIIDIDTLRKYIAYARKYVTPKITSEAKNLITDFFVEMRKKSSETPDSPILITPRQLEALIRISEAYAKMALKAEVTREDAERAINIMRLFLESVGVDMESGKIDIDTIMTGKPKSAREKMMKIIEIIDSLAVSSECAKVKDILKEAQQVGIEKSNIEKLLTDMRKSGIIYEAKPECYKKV

SsoMCM K323A/R440A = biological target: T2, SsoMCM K323A/R440A (Sulfolobus solfataricus, UniProt Q9UXG1 1-686, K323A;R440A); assay: single-pair FRET
T2 sequence: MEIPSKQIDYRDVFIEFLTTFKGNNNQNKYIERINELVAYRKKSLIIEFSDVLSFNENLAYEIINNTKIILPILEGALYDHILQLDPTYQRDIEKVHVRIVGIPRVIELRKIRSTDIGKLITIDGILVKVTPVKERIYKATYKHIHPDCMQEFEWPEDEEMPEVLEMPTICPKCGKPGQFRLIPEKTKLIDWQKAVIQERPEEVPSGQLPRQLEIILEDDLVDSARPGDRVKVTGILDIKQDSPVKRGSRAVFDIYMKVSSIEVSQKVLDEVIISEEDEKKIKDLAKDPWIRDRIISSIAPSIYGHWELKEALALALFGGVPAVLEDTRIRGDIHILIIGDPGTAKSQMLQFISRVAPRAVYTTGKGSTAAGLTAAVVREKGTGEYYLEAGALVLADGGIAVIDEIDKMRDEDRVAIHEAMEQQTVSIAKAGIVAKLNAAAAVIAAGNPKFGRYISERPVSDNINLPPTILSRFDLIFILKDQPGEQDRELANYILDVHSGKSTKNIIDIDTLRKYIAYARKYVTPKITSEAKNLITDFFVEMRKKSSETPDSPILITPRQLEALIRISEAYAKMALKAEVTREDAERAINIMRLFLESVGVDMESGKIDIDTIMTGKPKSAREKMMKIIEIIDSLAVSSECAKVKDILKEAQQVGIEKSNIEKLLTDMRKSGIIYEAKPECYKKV

SEC = biological target: the molecule itself; assay: SEC
SsoMCM WT [2] = biological target: T1, SsoMCM WT; assay: fluorescence anisotropy

B1: spFRET fork 5'-tail 50 (51 nt) (mixed)
DNA 1: TGGCGACGGCAGCGAGGCTTTTTTTTTTTTTTTTTTTTTTTTTTTTTTT
DNA 2: TTTTTTTTTTTTTTTTTTTTTTTTTTTTTTTTTTTTTTTTTTTTTTTTTTTGCCTCGCTGCCGTCGCCA
binding result (SsoMCM WT [1]): binds | binding result (SsoMCM K323A/R440A): binds

B2: spFRET fork 5'-tail 70 (71 nt) (mixed)
DNA 1: TGGCGACGGCAGCGAGGCTTTTTTTTTTTTTTTTTTTTTTTTTTTTTTT
DNA 2: TTTTTTTTTTTTTTTTTTTTTTTTTTTTTTTTTTTTTTTTTTTTTTTTTTTTTTTTTTTTTTTTTTTTTTTGCCTCGCTGCCGTCGCCA
binding result (SsoMCM WT [1]): binds | binding result (SsoMCM K323A/R440A): binds

B3: Full-length wild-type Sulfolobus solfataricus minichromosome maintenance (MCM) helicase (enzyme, UniProt Q9UXG1 1-686, looked up)
chain: MEIPSKQIDYRDVFIEFLTTFKGNNNQNKYIERINELVAYRKKSLIIEFSDVLSFNENLAYEIINNTKIILPILEGALYDHILQLDPTYQRDIEKVHVRIVGIPRVIELRKIRSTDIGKLITIDGILVKVTPVKERIYKATYKHIHPDCMQEFEWPEDEEMPEVLEMPTICPKCGKPGQFRLIPEKTKLIDWQKAVIQERPEEVPSGQLPRQLEIILEDDLVDSARPGDRVKVTGILDIKQDSPVKRGSRAVFDIYMKVSSIEVSQKVLDEVIISEEDEKKIKDLAKDPWIRDRIISSIAPSIYGHWELKEALALALFGGVPKVLEDTRIRGDIHILIIGDPGTAKSQMLQFISRVAPRAVYTTGKGSTAAGLTAAVVREKGTGEYYLEAGALVLADGGIAVIDEIDKMRDEDRVAIHEAMEQQTVSIAKAGIVAKLNARAAVIAAGNPKFGRYISERPVSDNINLPPTILSRFDLIFILKDQPGEQDRELANYILDVHSGKSTKNIIDIDTLRKYIAYARKYVTPKITSEAKNLITDFFVEMRKKSSETPDSPILITPRQLEALIRISEAYAKMALKAEVTREDAERAINIMRLFLESVGVDMESGKIDIDTIMTGKPKSAREKMMKIIEIIDSLAVSSECAKVKDILKEAQQVGIEKSNIEKLLTDMRKSGIIYEAKPECYKKV
stoichiometry N (SEC): 6

B4: SsoMCM K323A/R440A (enzyme, Sulfolobus solfataricus, UniProt Q9UXG1 1-686, looked up)
chain: MEIPSKQIDYRDVFIEFLTTFKGNNNQNKYIERINELVAYRKKSLIIEFSDVLSFNENLAYEIINNTKIILPILEGALYDHILQLDPTYQRDIEKVHVRIVGIPRVIELRKIRSTDIGKLITIDGILVKVTPVKERIYKATYKHIHPDCMQEFEWPEDEEMPEVLEMPTICPKCGKPGQFRLIPEKTKLIDWQKAVIQERPEEVPSGQLPRQLEIILEDDLVDSARPGDRVKVTGILDIKQDSPVKRGSRAVFDIYMKVSSIEVSQKVLDEVIISEEDEKKIKDLAKDPWIRDRIISSIAPSIYGHWELKEALALALFGGVPAVLEDTRIRGDIHILIIGDPGTAKSQMLQFISRVAPRAVYTTGKGSTAAGLTAAVVREKGTGEYYLEAGALVLADGGIAVIDEIDKMRDEDRVAIHEAMEQQTVSIAKAGIVAKLNAAAAVIAAGNPKFGRYISERPVSDNINLPPTILSRFDLIFILKDQPGEQDRELANYILDVHSGKSTKNIIDIDTLRKYIAYARKYVTPKITSEAKNLITDFFVEMRKKSSETPDSPILITPRQLEALIRISEAYAKMALKAEVTREDAERAINIMRLFLESVGVDMESGKIDIDTIMTGKPKSAREKMMKIIEIIDSLAVSSECAKVKDILKEAQQVGIEKSNIEKLLTDMRKSGIIYEAKPECYKKV
stoichiometry N (SEC): 6

B5: SsoMCM K323A (enzyme, Sulfolobus solfataricus, UniProt Q9UXG1 1-686, looked up)
chain: MEIPSKQIDYRDVFIEFLTTFKGNNNQNKYIERINELVAYRKKSLIIEFSDVLSFNENLAYEIINNTKIILPILEGALYDHILQLDPTYQRDIEKVHVRIVGIPRVIELRKIRSTDIGKLITIDGILVKVTPVKERIYKATYKHIHPDCMQEFEWPEDEEMPEVLEMPTICPKCGKPGQFRLIPEKTKLIDWQKAVIQERPEEVPSGQLPRQLEIILEDDLVDSARPGDRVKVTGILDIKQDSPVKRGSRAVFDIYMKVSSIEVSQKVLDEVIISEEDEKKIKDLAKDPWIRDRIISSIAPSIYGHWELKEALALALFGGVPAVLEDTRIRGDIHILIIGDPGTAKSQMLQFISRVAPRAVYTTGKGSTAAGLTAAVVREKGTGEYYLEAGALVLADGGIAVIDEIDKMRDEDRVAIHEAMEQQTVSIAKAGIVAKLNARAAVIAAGNPKFGRYISERPVSDNINLPPTILSRFDLIFILKDQPGEQDRELANYILDVHSGKSTKNIIDIDTLRKYIAYARKYVTPKITSEAKNLITDFFVEMRKKSSETPDSPILITPRQLEALIRISEAYAKMALKAEVTREDAERAINIMRLFLESVGVDMESGKIDIDTIMTGKPKSAREKMMKIIEIIDSLAVSSECAKVKDILKEAQQVGIEKSNIEKLLTDMRKSGIIYEAKPECYKKV
stoichiometry N (SEC): 6

B6: SsoMCM R440A (enzyme, Sulfolobus solfataricus, UniProt Q9UXG1 1-686, looked up)
chain: MEIPSKQIDYRDVFIEFLTTFKGNNNQNKYIERINELVAYRKKSLIIEFSDVLSFNENLAYEIINNTKIILPILEGALYDHILQLDPTYQRDIEKVHVRIVGIPRVIELRKIRSTDIGKLITIDGILVKVTPVKERIYKATYKHIHPDCMQEFEWPEDEEMPEVLEMPTICPKCGKPGQFRLIPEKTKLIDWQKAVIQERPEEVPSGQLPRQLEIILEDDLVDSARPGDRVKVTGILDIKQDSPVKRGSRAVFDIYMKVSSIEVSQKVLDEVIISEEDEKKIKDLAKDPWIRDRIISSIAPSIYGHWELKEALALALFGGVPKVLEDTRIRGDIHILIIGDPGTAKSQMLQFISRVAPRAVYTTGKGSTAAGLTAAVVREKGTGEYYLEAGALVLADGGIAVIDEIDKMRDEDRVAIHEAMEQQTVSIAKAGIVAKLNAAAAVIAAGNPKFGRYISERPVSDNINLPPTILSRFDLIFILKDQPGEQDRELANYILDVHSGKSTKNIIDIDTLRKYIAYARKYVTPKITSEAKNLITDFFVEMRKKSSETPDSPILITPRQLEALIRISEAYAKMALKAEVTREDAERAINIMRLFLESVGVDMESGKIDIDTIMTGKPKSAREKMMKIIEIIDSLAVSSECAKVKDILKEAQQVGIEKSNIEKLLTDMRKSGIIYEAKPECYKKV
stoichiometry N (SEC): 6

B7: ssDNA (66 nt) (ssDNA)
DNA: CACCTCTCCCTACGCTTCCCACCCACCCCGACCGGCATCTGCTATGGTACGCTGAGCGAGAGTAGC
Kd (SsoMCM WT [2]): 26 ± 5 nM
